This is an account of results in US20230340065A1 (published 2023).

In experiment [1] the target is T1, PRAME peptide on HLA-A*24:02 (human).
T1 peptide: LYVDSLFFL
Briefly: multimer staining.

The target of experiment [2] is T2, CATSPERB peptide on HLA-A*24:02 (human).
T2 peptide: LYYDHLGFL
Description: cytokine release.

The target of experiment [3] is T3, PRAME peptide on HLA-A*02:17 (human).
T3 peptide: LYVDSLFFL
Briefly: cytokine release.

Experiment [4] has as its target T4, FBXO24 peptide on HLA-A*24:02 (human).
T4 peptide: DYVGTLFFL
Briefly: cytokine release.

Experiment [5] deals with T5, KCNK12 peptide on HLA-A*24:02 (human).
T5 peptide: DYVDSLYFC
Briefly: cytokine release.

Experiment [6] addresses T6, GTPBP6 peptide on HLA-A*24:02 (human).
T6 peptide: LYVDTIGFL
Briefly: cytokine release.

The target of experiment [7] is T7, XXYLT1 peptide on HLA-A*24:02 (human).
T7 peptide: YYSDSIFFL
Description: cytokine release.

B1: TCR T116-49 (TCR, V domains shown)
Valpha: QQPVQSPQAVILREGEDAVINCSSSKALYSVHWYRQKHGEAPVFLMILLKGGEQKGHEKISASFNEKKQQSSLYLTASQLSYSGTYFCGTANSGGSNYKLTFGKGTLLTVNP
Vbeta: DAGITQSPRHKVTETGTPVTLRCHQTENHRYMYWYRQDPGHGLRLIHYSYGVKDTDKGEVSDGYSVSRSKTEDFLLTLESATSSQTSVYFCAISDYEGTEAFFGQGTRLTVV
As to B1, the binding result in experiment [1] was “recognises”; in experiment [2], “no recognition”; in experiment [3], “recognises”; in experiment [4] it was “recognises”; in experiment [5], “no recognition”; in experiment [6] it was “no recognition”. Further, in experiment [7], the binding result is “no recognition”.

B2: TCR T402-93 (TCR, V domains shown)
Valpha: GQQVMQIPQYQHVQEGEDFTTYCNSSTTLSNIQWYKQRPGGHPVFLIQLVKSGEVKKQKRLTFQFGEAKKNSSLHITATQTTDVGTYFCAGALPRAGSYQLTFGKGTKLSVIP
Vbeta: SQTIHQWPATLVQPVGSPLSLECTVEGTSNPNLYWYRQAAGRGLQLLFYSVGIGQISSEVPQNLSASRPQDRQFILSSKKLLLSDSGFYLCAWSLGAGYTDTQYFGPGTRLTVL
Take B2: the binding result in experiment [1] is recorded as “recognises”; in experiment [2], “recognises”; in experiment [4], “no recognition”; in experiment [5], “recognises”; in experiment [6] it was “recognises”; in experiment [7], “recognises”.
